Source: patent publication US20160222105A1 (MacroGenics, published 2016)

Legend:
[1] = biological target: T1, gpA33 on human cancer cells (human, UniProt Q99795 22-319); assay: cell-based or functional assay
T1 sequence (looked up): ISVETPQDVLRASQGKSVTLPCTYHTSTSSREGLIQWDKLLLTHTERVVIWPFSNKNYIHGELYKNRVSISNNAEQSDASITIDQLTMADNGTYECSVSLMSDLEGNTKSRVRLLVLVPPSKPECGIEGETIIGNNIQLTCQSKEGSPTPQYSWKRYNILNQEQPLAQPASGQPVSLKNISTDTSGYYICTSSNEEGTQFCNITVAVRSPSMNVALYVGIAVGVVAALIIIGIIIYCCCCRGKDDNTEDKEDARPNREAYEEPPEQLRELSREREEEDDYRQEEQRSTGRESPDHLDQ

soluble CD3 fragment = biological target: T2, soluble CD3 fragment (Homo sapiens (Human), UniProt P07766 23-127; P04234 22-101); assay: sandwich plate assay titled 'shCD3 capture/gpA33 detection': soluble CD3 immobilized, diabody titrated, bound diabody detected with gpA33; the signal needs binding to both CD3 and gpA33
T2 construct: copies: 1 + 1
Experimental: The detection of binding was assessed by the capacity of immobilized antibodies to additionally bind gpA33.

human gpA33 = biological target: T3, human gpA33 (human, UniProt Q99795 22-235, limits assumed); assay: simultaneous-binding assay; group statement
T3 construct: There it is printed only as gpA33; also called A33 antigen
T3 sequence (looked up): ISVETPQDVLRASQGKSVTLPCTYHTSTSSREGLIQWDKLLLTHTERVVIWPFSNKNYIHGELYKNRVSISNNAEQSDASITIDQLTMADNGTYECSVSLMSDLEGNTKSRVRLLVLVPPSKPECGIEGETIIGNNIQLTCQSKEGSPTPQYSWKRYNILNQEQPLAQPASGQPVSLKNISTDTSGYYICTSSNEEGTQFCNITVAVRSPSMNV

[2] = biological target: T4, soluble cynomolgus monkey gpA33 with 6His (cynomolgus monkey, UniProt G7NU40 17-329); assay: SPR (BIAcore 3000), captured gpA33-His, diabody as analyte, 1:1 Langmuir global fit
T4 construct: range 1-314; The range 1-314 is as printed; also called cynogpA33-His
T4 sequence: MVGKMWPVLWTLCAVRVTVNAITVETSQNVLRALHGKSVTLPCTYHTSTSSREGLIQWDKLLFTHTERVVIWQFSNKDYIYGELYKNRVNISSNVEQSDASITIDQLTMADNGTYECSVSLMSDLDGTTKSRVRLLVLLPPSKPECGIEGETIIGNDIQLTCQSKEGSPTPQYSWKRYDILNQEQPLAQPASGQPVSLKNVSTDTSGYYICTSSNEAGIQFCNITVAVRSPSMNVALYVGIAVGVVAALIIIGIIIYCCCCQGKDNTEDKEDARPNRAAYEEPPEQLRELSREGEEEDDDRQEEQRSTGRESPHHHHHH

[3] = biological target: T5, soluble human gpA33 with 6His (human, UniProt Q99795 22-235); assay: as above
T5 construct: range 1-235; Expressed in CHO-S cells; The stated range starts at residue 1 and so includes the signal peptide; also called hgpA33-His
T5 sequence: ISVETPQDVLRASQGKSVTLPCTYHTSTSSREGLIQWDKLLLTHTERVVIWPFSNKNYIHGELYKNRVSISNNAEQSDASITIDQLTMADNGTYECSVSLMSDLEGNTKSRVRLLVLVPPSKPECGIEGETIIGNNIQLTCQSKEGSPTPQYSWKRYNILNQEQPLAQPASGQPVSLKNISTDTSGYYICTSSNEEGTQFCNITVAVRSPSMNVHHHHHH

[4] = biological target: T6, soluble human CD3ε/CD3δ heterodimer (human); assay: SPR (BIAcore 3000), CD3 immobilized on CM5 chip, diabody as analyte, 1:1 Langmuir global fit
T6 construct: Co-expressed in CHO-S cells; also called hCD3ε/δ
T6 chain 1: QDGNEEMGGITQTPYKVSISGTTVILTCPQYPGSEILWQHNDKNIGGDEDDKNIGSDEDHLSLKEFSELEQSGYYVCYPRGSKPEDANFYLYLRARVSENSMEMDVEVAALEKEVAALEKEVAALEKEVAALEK
T6 chain 2: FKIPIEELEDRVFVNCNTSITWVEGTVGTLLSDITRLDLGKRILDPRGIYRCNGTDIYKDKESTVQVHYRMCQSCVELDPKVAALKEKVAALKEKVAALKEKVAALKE
Experimental: (§1) gpA33×CD3 bi-specific Fc diabody (DART-2 w/Fc Version 1) binding to soluble versions of human and cynomolgus monkey CD3 receptor was analyzed by SPR on a BIAcore 3000 biosensor (GE, Healthcare). Receptors were immobilized on the CM5 sensor chip according to the procedure recommended by the manufacturer. Briefly, the carboxyl groups on the sensor chip surface were activated with an injection of a solution containing 0.2M N-ethyl-N-(3dietylamino-propyl) carbodiimide and 0.05M N-hydroxy-succinimide. Soluble CD3 receptor (1 μg/ml) was then injected over the activated CM5 surface in 10 mM sodium-acetate, pH 5.0, at flow rate 5 μL/min, followed by 1 M ethanolamine for deactivation.
(§2) Binding experiments were performed in HBS-EP buffer, which contains 10 mM HEPES, pH 7.4, 150 mM NaCl, 3 mM EDTA and 0.005% P20 surfactant. Binding of DART-2 w/Fc Version 1 was analyzed (in duplicate) at concentrations of 0, 6.25, 12.5, 25, 50 and 100 nM, injected for 120 sec at a flow rate of 30 μL/min.
(§3) Regeneration of the immobilized receptor surfaces was performed by pulse injection of 10 mM glycine, pH 1.5. Reference curves were obtained by injection of each dilution of DART-2 w/Fc over the treated surface with no immobilized protein. Binding curves at zero concentration were subtracted as a blank. KD values were determined by a global fit of binding curves to the Langmuir 1:1 binding model (BIAevaluation™ software v4.1).

[5] = biological target: T7, soluble cynomolgus monkey CD3ε/CD3δ heterodimer (cynomolgus monkey); assay: as above
T7 construct: Co-expressed in CHO-S cells; also called cynoCD3ε/δ
T7 chain 1: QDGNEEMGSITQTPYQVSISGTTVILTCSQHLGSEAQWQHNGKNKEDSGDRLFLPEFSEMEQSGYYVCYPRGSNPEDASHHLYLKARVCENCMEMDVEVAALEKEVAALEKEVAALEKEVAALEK
T7 chain 2: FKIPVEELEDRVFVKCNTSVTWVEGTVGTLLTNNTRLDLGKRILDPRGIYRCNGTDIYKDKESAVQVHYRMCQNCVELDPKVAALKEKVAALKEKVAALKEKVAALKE
Experimental: as §1, §2, §3

B1: gpA33 × CD3 bi-specific monovalent diabody (DART-1) (bispecific antibody)
chain 1: QAVVTQEPSLTVSPGGTVTLTCRSSTGAVTTSNYANWVQQKPGQAPRGLIGGTNKRAPWTPARFSGSLLGGKAALTITGAQAEDEADYYCALWYSNLWVFGGGTKLTVLGGGGSGGGGQVQLQQSGPELVKPGASVKISCKASGYTFSGSWMNWVKQRPGQGLEWIGRIYPGDGETNYNGKFKDKATLTADKSSTTAYMELSSLTSVDSAVYFCARIYGNNVYFDVWGAGTTVTVSSGGCGGGEVAALEKEVAALEKEVAALEKEVAALEK
chain 2: QIVLTQSPAIMSASPGERVTMTCSARSSISFMYWYQQKPGSSPRLLIYDTSNLASGVPVRFSGSGSGTSYSLTISRMEAEDAATYYCQQWSSYPLTFGSGTKLELKRGGGSGGGGEVQLVESGGGLVQPGGSLRLSCAASGFTFNTYAMNWVRQAPGKGLEWVARIRSKYNNYATYYADSVKDRFTISRDDSKNSLYLQMNSLKTEDTAVYYCVRHGNFGNSYVSWFAYWGQGTLVTVSSGGCGGGKVAALKEKVAALKEKVAALKEKVAALKE
notes: Disulfide-bonded heterodimer with murine anti-gpA33 variable domains; also called gpA33 × CD3 DART 1
EC50 of redirected killing, ASPC-1 cells, E:T 10:1 [1]: 1.14 ng/mL | EC50 of redirected killing, Colo205 cells, E:T 10:1 [1]: 0.585 ng/mL | EC50 of redirected killing, Colon CSLC cells, human PBMC E:T 25:1 [1]: 0.901 ng/mL | EC50 (read off the curve) (soluble CD3 fragment): ~200 ng/mL

B2: gpA33 × CD3 bi-specific monovalent diabody having an IgG Fc Domain version 2 (DART-2 w/Fc Version 2) (bispecific antibody)
chain 1: DKTHTCPPCPAPEAAGGPSVFLFPPKPKDTLMISRTPEVTCVVVDVSHEDPEVKFNWYVDGVEVHNAKTKPREEQYNSTYRVVSVLTVLHQDWLNGKEYKCKVSNKALPAPIEKTISKAKGQPREPQVYTLPPSREEMTKNQVSLWCLVKGFYPSDIAVEWESNGQPENNYKTTPPVLDSDGSFFLYSKLTVDKSRWQQGNVFSCSVMHEALHNHYTQKSLSLSPGKAPSSSPMEDIQLTQSPSFLSASVGDRVTITCSARSSISFMYWYQQKPGKAPKLLIYDTSNLASGVPSRFSGSGSGTEFTLTISSLEAEDAATYYCQQWSSYPLTFGQGTKLEIKGGGSGGGGEVQLVESGGGLVQPGGSLRLSCAASGFTFSTYAMNWVRQAPGKGLEWVGRIRSKYNNYATYYADSVKDRFTISRDDSKNSLYLQMNSLKTEDTAVYYCVRHGNFGNSYVSWFAYWGQGTLVTVSSGGCGGGKVAALKEKVAALKEKVAALKEKVAALKE
chain 2: QAVVTQEPSLTVSPGGTVTLTCRSSTGAVTTSNYANWVQQKPGQAPRGLIGGTNKRAPWTPARFSGSLLGGKAALTITGAQAEDEADYYCALWYSNLWVFGGGTKLTVLGGGGSGGGGQVQLVQSGAEVKKPGASVKVSCKASGYTFTGSWMNWVRQAPGQGLEWIGRIYPGDGETNYNGKFKDRVTITADKSTSTAYMELSSLRSEDTAVYYCARIYGNNVYFDVWGQGTTVTVSSGGCGGGEVAALEKEVAALEKEVAALEKEVAALEK
chain 3: not shown
binding result (human gpA33): binds

B3: gpA33 × CD3 bi-specific monovalent diabody having an IgG Fc Domain version 1 (DART-2 w/Fc Version 1) (bispecific antibody)
chain 1: DIQLTQSPSFLSASVGDRVTITCSARSSISFMYWYQQKPGKAPKLLIYDTSNLASGVPSRFSGSGSGTEFTLTISSLEAEDAATYYCQQWSSYPLTFGQGTKLEIKGGGSGGGGEVQLVESGGGLVQPGGSLRLSCAASGFTFSTYAMNWVRQAPGKGLEWVGRIRSKYNNYATYYADSVKDRFTISRDDSKNSLYLQMNSLKTEDTAVYYCVRHGNFGNSYVSWFAYWGQGTLVTVSSGGCGGGEVAALEKEVAALEKEVAALEKEVAALEKGGGDKTHTCPPCPAPEAAGGPSVFLFPPKPKDTLMISRTPEVTCVVVDVSHEDPEVKFNWYVDGVEVHNAKTKPREEQYNSTYRVVSVLTVLHQDWLNGKEYKCKVSNKALPAPIEKTISKAKGQPREPQVYTLPPSREEMTKNQVSLWCLVKGFYPSDIAVEWESNGQPENNYKTTPPVLDSDGSFFLYSKLTVDKSRWQQGNVFSCSVMHEALHNHYTQKSLSLSPGK
chain 2: QAVVTQEPSLTVSPGGTVTLTCRSSTGAVTTSNYANWVQQKPGQAPRGLIGGTNKRAPWTPARFSGSLLGGKAALTITGAQAEDEADYYCALWYSNLWVFGGGTKLTVLGGGGSGGGGQVQLVQSGAEVKKPGASVKVSCKASGYTFTGSWMNWVRQAPGQGLEWIGRIYPGDGETNYNGKFKDRVTITADKSTSTAYMELSSLRSEDTAVYYCARIYGNNVYFDVWGQGTTVTVSSGGCGGGKVAALKEKVAALKEKVAALKEKVAALKE
chain 3: not shown
notes: also called DART-2 with Fc
Kd [2]: 12 nM | koff [2]: 0.0028 s⁻¹ | kon [2]: 230000 M⁻¹ s⁻¹ | Kd [3]: 2.2 nM | koff [3]: 0.0009 s⁻¹ | kon [3]: 420000 M⁻¹ s⁻¹ | Kd [4]: 23 nM | koff [4]: 0.0035 s⁻¹ | kon [4]: 150000 M⁻¹ s⁻¹ | Kd [5]: 26 nM | koff [5]: 0.0034 s⁻¹ | kon [5]: 130000 M⁻¹ s⁻¹
